Results from article PMC10901741, “Autonomous transposons tune their sequences to ensure somatic suppression”.

T1: Halo-TRA2B RRM (UniProt P62995 111-201)
T1 sequence: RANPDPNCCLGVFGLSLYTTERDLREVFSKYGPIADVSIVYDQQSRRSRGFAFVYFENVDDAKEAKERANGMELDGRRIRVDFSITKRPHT


Experiments:
Conditions in all cases: protein: recombinant; tags: Halo (N-terminal 10xHis-TEV removed), OregonGreen on Halo; label: 3' CF 647 hydrazide (periodate-oxidized end); single-stranded
[1] = target: T2, Halo-SAFB1 RRM (UniProt Q15424 386-485); test: EMSA; protein 3.6-102.4 uM; lower affinity than TRA2B RRM; EMSA: 25 mM Tris-Cl pH 7.4, 50 mM KCl, 5% glycerol, 1 mM DTT, ~100 nM RNA, 30 min on ice, 8% native PAGE 0.5x TBE; pull-down: 25 mM Tris-Cl pH 7.4, ~75 mM KCl
[2] = target: T1, Halo-TRA2B RRM; test: EMSA; protein 3.6-102.4 uM; clearly higher affinity than SAFB1 RRM; EMSA: 25 mM Tris-Cl pH 7.4, 50 mM KCl, 5% glycerol, 1 mM DTT, ~100 nM RNA, 30 min on ice, 8% native PAGE 0.5x TBE; pull-down: 25 mM Tris-Cl pH 7.4, ~75 mM KCl
[3] = target: T1, Halo-TRA2B RRM; test: EMSA; protein 3.6-102.4 uM; lost all interactions; EMSA: 25 mM Tris-Cl pH 7.4, 50 mM KCl, 5% glycerol, 1 mM DTT, ~100 nM RNA, 30 min on ice, 8% native PAGE 0.5x TBE; pull-down: 25 mM Tris-Cl pH 7.4, ~75 mM KCl
[4] = target: T2, Halo-SAFB1 RRM; test: EMSA; protein 3.6-102.4 uM; barely affected by m6A; EMSA: 25 mM Tris-Cl pH 7.4, 50 mM KCl, 5% glycerol, 1 mM DTT, ~100 nM RNA, 30 min on ice, 8% native PAGE 0.5x TBE; pull-down: 25 mM Tris-Cl pH 7.4, ~75 mM KCl

T2 sequence (Q15424 386-485): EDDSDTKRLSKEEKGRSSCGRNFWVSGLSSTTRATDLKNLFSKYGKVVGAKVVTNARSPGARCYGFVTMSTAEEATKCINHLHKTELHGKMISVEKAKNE

| Binder | binding result [1] | binding result [2] | binding result [3] | binding result [4] |
| --- | --- | --- | --- | --- |
| GGGAAGAAGAAGAAGAAGAAGAAGAU (ssRNA) [(AGA)x7 RNA, unmethylated] | binds | binds | – | – |
| GGGAAGAAGAAGAAGAAGAAGAAGAU (ssRNA, all A are N6-methyladenosine) [(m6AGm6A)x7 RNA, methylated] | – | – | no binding | binds |
